# Test results taken from patent US20040072293A1, “Novel physiologically active peptide and use thereof” (priority 2001, published 2004).
# B1: MIT1 (protein, listed as Dendroaspip polylepis)
# chain: AVITGACERDLQCGKGTCCAVSLWIKSVRVCTPVGTSGEDCHPASHKIPFSGQRMHHTCPCAPNLACVQTSPKKFKCLSK
# Assays:
# [1] = biological target: T1, the protein of the invention (ZAQ) (Homo sapiens, UniProt Q8TCW9); experiment: activation of the protein of the invention and intracellular Ca ion concentration in cells expressing it; type: cell-based
# T1 construct: expressed in transfected cells
# T1 sequence (Q8TCW9 whole entry): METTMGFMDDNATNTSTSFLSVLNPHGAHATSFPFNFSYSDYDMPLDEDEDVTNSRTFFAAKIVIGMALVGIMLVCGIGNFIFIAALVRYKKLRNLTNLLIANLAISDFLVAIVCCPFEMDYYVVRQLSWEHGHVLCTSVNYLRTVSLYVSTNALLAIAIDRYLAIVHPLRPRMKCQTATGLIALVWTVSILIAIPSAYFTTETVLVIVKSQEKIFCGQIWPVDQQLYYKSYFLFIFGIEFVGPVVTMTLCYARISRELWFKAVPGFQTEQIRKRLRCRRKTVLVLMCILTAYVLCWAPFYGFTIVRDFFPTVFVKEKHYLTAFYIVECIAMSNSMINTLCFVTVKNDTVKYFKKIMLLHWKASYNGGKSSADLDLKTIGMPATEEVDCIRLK
# ileum or distal colon = conditions: cited from earlier work
# proximal colon = conditions: cited from earlier work
molecule,measurement,setting,value
B1,activation of the protein of the invention,[1],activated the protein of the invention
same,intracellular Ca ion concentration,[1]; cells in which the protein of the invention was expressed,increased intracellular Ca ion concentration
same,contraction in the ileum or distal colon,ileum or distal colon,induced contraction in the ileum or distal colon
same,degree of contraction/relaxation compared with potassium chloride,"ileum or distal colon; ileum, distal colon (contraction) and proximal colon (relaxation), comparator 40 mM potassium chloride",as potent as comparable to 40 mM potassium chloride
same,relaxation in the proximal colon,proximal colon,relaxation in the proximal colon
